Each block holds one binder with its values, some of them ahead of it.
Key:
TACC3 629–838 [1] = target: T1, TACC3 629–838 (human, UniProt Q9Y6A5 629-838); assay: pull-down; in vitro co-precipitation; His-NusA-ch-TOG 1817–1957 constructs immobilised on Nickel Sepharose, TACC3 629–838 added; binding of TACC3 resolved by western blot; details: both partners purified
T1 construct: human TACC3, TACC domain, residues 629-838; For MST the protein was fluorescently labelled via NHS coupling (NHS Red labelling kit, Nanotemper); Construct from Hood et al., 2013; also called TACC3 TACC domain; TACC3 TD; not shown: His, N-terminal, cleaved; NusA, N-terminal, cleaved

TACC3 629–838 [2] = target: T1, TACC3 629–838; assay: MST; NHS Red labelled TACC domain at 600 nM, H5 peptide 0–400 μM; 20 mM sodium phosphate, 50 mM NaCl, 2 mM DTT, 0.05% Tween, 0.02% NaN3; one-site specific binding model; details: both partners purified
[3] = target: the molecule itself; assay: EPR (CW EPR and DEER); MTSL-labelled TACC3 proteins, 50 μM with 30% glycerol; CW EPR at 120 K, four-pulse DEER at 50 K
ch-TOG 1517–1957 = target: T2, ch-TOG 1517–1957 (human, UniProt Q14008 1517-1957); assay: pull-down; in vitro co-precipitation; C-terminal His-tagged Affimers immobilised on Nickel Sepharose, incubated with TACC3 629–838 ∆699–765, ch-TOG 1517–1957 added; details: both partners purified
T2 construct: Construct from Hood et al., 2013; also called C-terminal domain of ch-TOG; not shown: His, N-terminal, cleaved; NusA, N-terminal, cleaved

binding result (TACC3 629–838 [1]): binds
B1: His-NusA-ch-TOG 1817–1957 (domain or fragment)
chain: ASRIDEKSSKAKVNDFLAEIFKKIGSKENTKEGLAELYEYKKKYSDADIEPFLKNSSQFFQSYVERGLRVIEMEREGKGRISTSTGISPQMEVTCVPTPTSTVSSIGNTNGEEVGPSVYLERLKILRQRCGLDNTKQDDRP
notes: not shown: His, N-terminal, kept; NusA, N-terminal, kept

Kd (TACC3 629–838 [2]): 17.3 µM
B2: synthetic ch-TOG H5 peptide (residues 1929–1947) (peptide)
peptide: EVGPSVYLERLKILRQRCG
notes: human ch-TOG/CKAP5 helix H5, residues 1929-1947; source: synthetic peptide

B3: TACC3 MTSL-C662 (domain or fragment)
chain: not shown
modifications: MTSL spin label on C662
notes: human TACC3 residues 629-838 with C749A and C828A; also called TACC3 629–838 C749A, C828A; source: E. coli BL21(DE3)RIL, purified, MTSL-labelled, SEC; not shown: His, N-terminal, cleaved; NusA, N-terminal, cleaved
binding result [3]: binds

binding result (ch-TOG 1517–1957): binds
B4: TACC3 629–838 ∆699–765 (domain or fragment)
chain: not shown
notes: human TACC3 residues 629-838 with residues 699-765 deleted; A version with a C-terminal biotinylated Avi-tag was used for Affimer panning and ELISA; also called TACC3 TD∆; not shown: His, N-terminal, cleaved; NusA, N-terminal, cleaved

From PMC11921806, “Structural characterization and inhibition of the interaction between ch-TOG and TACC3” (The Journal of Cell Biology, 2025)
